Consider 5 molecules from US20220306734A1 (H LUNDBECK A S, published 2022).

Test [1] has as its target human mGluR5 extracellular domain (human-mGluR5-ECD) (human) (UniProt P41594). Put plainly: HTRF, soluble ECD. For orientation: In TR-FRET formats the signal depends on donor and acceptor labels being close together.
Test [2] has the same target. Put plainly: HTRF, soluble ECD. This is another data set of the same source.
Test [3] deals with full-length (FL) human mGluR5 on BA/F3-mGluR5 clone 10C9 cells (human) (UniProt P41594). Nature of the test: cell-based or functional assay.
Test [4] concerns the target T1, rat mGluR5 extracellular domain (rat-mGluR5-ECD) (rat, UniProt P31424 21-504).
T1 construct: ECD construct made 'in a similar fashion' to the human one
Nature of the test: HTRF, soluble ECD. The procedure: (§1) Binding of antibodies to mGluR5/mGluRJ measured via Homogeneous Time-Resolved Fluorescence (HTRF). Binding assays were performed using HTRF reagents from CisBio. Ten microliters of an antibody dilution series (highest final concentration of 30 nM) was incubated with 10 μl of mGluR-ECD (10 nM final concentration) in HTRF buffer (50 mM Phosphate buffer pH7, 0.8M KF (potassium fluoride), 0.2% BSA). Twenty microliters of Europium-labeled anti-hu-Fc donor (2 nM final concentration, CisBio Catalog No. 61HFCKLB) and 20 μl of XL665-labeled anti-Flag acceptor (60 nM final concentration, CisBio Catalog No. 61FG2XLB) were added to each well and incubated for 1 hour at room temperature. Alternatively, the antibody dilution series was incubated with 10 μl of biotinylated mGluR-ECD (10 nM final concentration), and 20 μl of Europium-labeled anti-hu-Fc donor (2 nM final concentration) and 20 μl of d2-labeled streptavidin acceptor (60 nM final concentration, CisBio Catalog No. 610SADLB) were added to each well. Fluorescence was measured at 620 and 665 nm with a delay of 300 μsec. Results were expressed as the ratio of signal at 665 nm over 620 nm. EC₅₀ values were calculated for binding of Ab1-Ab23 to human-mGluR5-ECD, of Ab1-Ab21 to rat-mGluR5-ECD, and of Ab1, Ab2 and Ab4-Ab12 to monkey-mGluR5-ECD and to human-mGluR1-ECD (TABLE 1).

Test [5] deals with T2, cynomolgus monkey mGluR5 extracellular domain (monkey-mGluR5-ECD) (cynomolgus monkey, UniProt P41594 21-580 (human entry), limits assumed).
T2 construct: ECD construct made 'in a similar fashion' to the human one; also called cyno-mGluR5
Nature of the test: HTRF, soluble ECD. The procedure: as §1

In test [6] the target is T3, human mGluR1 extracellular domain (human-mGluR1-ECD) (human, UniProt Q13255 19-592, limits assumed).
T3 construct: ECD construct made 'in a similar fashion' to the human mGluR5 one; also called hu-mGluR1
Nature of the test: HTRF, soluble ECD. The procedure:
as §1

Test [7] concerns the target full-length (FL) human mGluR5 on BA/F3-mGluR5 clone 10C9 cells (human) (UniProt P41594). Put plainly: flow cytometry, BA/F3-mGluR5 10C9 cells, 10 ug/ml antibody.
Test [8] shares this target. Put plainly: flow cytometry, BA/F3-mGluR5 10C9 cells; high end tied to Ab4 by Table 2. (In general: A flow cytometer gives signals particle by particle.)
The target in test [9] is human mGluR5 extracellular domain (human-mGluR5-ECD) (human) (UniProt P41594). Put plainly: AlphaLISA, biotinylated ECD.
Test [10] shares this target. Nature of the test: AlphaLISA, biotinylated ECD. This is another data set of the same source. On the technique in general: Bead proximity is the source of the signal in Alpha formats.
Test [11] has as its target full-length (FL) human mGluR5 on BA/F3-mGluR5 clone 10C9 cells (human) (UniProt P41594). Put plainly: flow cytometry, BA/F3-mGluR5 10C9 cells; low end tied to Ab22 by Table 2.

human mGluR5 extracellular domain (human-mGluR5-ECD) (human), sequence (P41594 other isoform, or with tags, fused parts or gaps): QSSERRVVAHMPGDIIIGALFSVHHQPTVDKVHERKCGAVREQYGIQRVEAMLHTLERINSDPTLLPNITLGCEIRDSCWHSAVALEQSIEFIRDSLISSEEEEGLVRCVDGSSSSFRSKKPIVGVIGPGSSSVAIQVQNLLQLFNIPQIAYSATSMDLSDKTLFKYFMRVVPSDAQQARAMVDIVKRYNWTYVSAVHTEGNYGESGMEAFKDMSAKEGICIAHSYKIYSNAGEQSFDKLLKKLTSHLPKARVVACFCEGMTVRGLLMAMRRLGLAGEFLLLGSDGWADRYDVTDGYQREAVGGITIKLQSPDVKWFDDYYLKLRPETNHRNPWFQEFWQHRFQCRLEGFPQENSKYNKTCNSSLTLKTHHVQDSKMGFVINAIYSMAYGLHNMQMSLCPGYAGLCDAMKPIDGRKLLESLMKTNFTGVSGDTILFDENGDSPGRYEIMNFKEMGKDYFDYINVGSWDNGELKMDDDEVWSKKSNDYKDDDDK
T3 sequence (Q13255 other isoform, or with tags, fused parts or gaps limits assumed): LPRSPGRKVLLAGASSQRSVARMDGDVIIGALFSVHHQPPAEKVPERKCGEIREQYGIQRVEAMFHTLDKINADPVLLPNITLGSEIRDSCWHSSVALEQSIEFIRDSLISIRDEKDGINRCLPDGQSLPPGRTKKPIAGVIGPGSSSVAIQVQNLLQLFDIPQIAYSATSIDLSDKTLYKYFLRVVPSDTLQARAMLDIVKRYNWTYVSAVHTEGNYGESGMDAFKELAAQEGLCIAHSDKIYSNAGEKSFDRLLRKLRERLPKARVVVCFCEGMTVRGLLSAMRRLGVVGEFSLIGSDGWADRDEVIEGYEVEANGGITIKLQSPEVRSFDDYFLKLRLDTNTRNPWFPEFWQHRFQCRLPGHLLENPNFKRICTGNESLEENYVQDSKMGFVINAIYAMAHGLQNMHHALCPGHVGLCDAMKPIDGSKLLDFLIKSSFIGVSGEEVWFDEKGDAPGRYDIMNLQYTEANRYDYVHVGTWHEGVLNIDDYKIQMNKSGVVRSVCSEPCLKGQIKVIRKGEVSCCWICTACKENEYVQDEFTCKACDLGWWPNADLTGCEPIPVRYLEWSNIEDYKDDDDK
T1 sequence (P31424 other isoform, or with tags, fused parts or gaps limits assumed, form in doubt): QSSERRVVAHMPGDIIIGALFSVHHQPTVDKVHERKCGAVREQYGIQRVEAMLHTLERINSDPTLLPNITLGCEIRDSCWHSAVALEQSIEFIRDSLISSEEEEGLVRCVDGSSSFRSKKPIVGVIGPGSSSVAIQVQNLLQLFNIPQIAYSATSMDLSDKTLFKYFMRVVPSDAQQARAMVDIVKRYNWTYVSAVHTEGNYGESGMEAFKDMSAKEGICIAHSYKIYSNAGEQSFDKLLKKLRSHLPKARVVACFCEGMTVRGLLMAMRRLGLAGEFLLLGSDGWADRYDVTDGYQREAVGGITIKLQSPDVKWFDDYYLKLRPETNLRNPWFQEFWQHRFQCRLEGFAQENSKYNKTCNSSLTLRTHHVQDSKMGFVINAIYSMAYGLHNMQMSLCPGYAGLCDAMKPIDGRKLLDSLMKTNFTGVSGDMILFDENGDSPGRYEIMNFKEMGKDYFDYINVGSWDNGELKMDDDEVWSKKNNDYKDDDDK
T2 sequence (P41594 other isoform, or with tags, fused parts or gaps limits assumed): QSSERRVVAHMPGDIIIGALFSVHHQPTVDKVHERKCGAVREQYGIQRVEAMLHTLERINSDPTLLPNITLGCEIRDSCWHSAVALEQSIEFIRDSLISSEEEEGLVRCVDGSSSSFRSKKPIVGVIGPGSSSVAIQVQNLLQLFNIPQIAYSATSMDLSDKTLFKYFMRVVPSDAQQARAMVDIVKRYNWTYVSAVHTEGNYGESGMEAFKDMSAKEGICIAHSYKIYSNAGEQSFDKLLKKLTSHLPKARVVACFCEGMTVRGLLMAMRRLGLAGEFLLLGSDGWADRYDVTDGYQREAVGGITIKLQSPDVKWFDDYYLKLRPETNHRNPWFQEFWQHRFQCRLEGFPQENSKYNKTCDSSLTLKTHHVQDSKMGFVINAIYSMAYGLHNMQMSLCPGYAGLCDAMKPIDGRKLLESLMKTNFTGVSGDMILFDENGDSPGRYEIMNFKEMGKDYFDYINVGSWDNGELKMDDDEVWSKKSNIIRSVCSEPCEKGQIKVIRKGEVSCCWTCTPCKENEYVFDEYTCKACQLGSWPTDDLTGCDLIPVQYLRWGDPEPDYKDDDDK

B1: mGluR5 Ab4 (antibody, V domains shown)
VH: QQQLEESGGGLVKPGGTLTLTCKGSGIDFNDYQYMCWVRQAPGKGLEWIACIYNGDGETYYAHWAKGRFTISKTSSTTVTLQMTSLTAADTATYFCARGSGVGSYGYNFWGPGTLVTVSS
VL: DIVMTQTPASVEAAVGGTVTIKCQASESIYSNLAWYQQKAGQPPKLLIYRASNLASGVPSRFKGSGSGTEFTLTISDLECADAATYYCQGYYASTVTNGFGGGTEVVVKR
notes: Rabbit variable regions on human heavy and light chain constant regions (chimeric)
By EC50 is commonly meant the concentration that produces a half-maximal response. On to B1, for which the EC50 in test [1] was 0.293 nM; in test [2], below 2 nM; in test [4] it was 0.332 nM; in [5] it was 0.286 nM. In test [3], the pERK Assay Inhibition IC50-nM is 0.34 nM. Besides, in [6], the binding result is recorded as “no binding”. Further, in test [7], the mGluR5 (FL) cell binding-fold over background is 41.8 fold. In test [8], this molecule gave a fold signal over background of 10 to 42 fold.

B2: mGluR5 Ab27 (antibody, V domains shown)
VH: QSVEESGGGLVKPGGTLTLTCKASGIDFSSYHYMCWVRQAPGKGLEWIACIYNGDGDTYYASWAKGRFTISKTSSTTVTLQMTSLTAADTATYFCARGSGVGSYGYNLWGPGTLVTVSS
VL: DIVMTQTPASVEAAVGGTVTIKCQASESIYSNLAWYQQKPGQPPKLLIYRASNLESGVPSRFKGSGSGTEFTLTISDLECADAATYYCQGYYASTTTNAFGGGTEVVVKR
For B2, in test [3], the pERK Assay Inhibition IC50-nM worked out at 0.06 nM. Further, the EC50 in test [9] was 0.0772 nM; in test [10], below 2 nM. This molecule gave a mGluR5 (FL) cell binding-fold over background in test [7] of 37.8 fold.

B3: mGluR5 Ab29 (antibody, V domains shown)
VH: QQQLEESGGGLVKPGGTLTLTCKASGIDFSSYHYMCWVRQAPGKGLEWIACIYNGDGDTYYASWAKGRFTISKTSSTTVTLQMTSLTAADTATYFCARGSGVGSYGYNLWGPGTLVTVSS
VL: DIVMTQTPASVEAAVGGTVTIKCQASENIYSNLAWYQQKPGQPPKLLIYRASNLESGVPSRFKGSGSGTEFTLTISDLECDDAATYYCQGYYPSAVTNAFGGGTEVVVKR
In turn, B3 gave a pERK Assay Inhibition IC50-nM in test [3] of 0.09 nM. In addition, the EC50 in [9] is 0.0891 nM; in test [10], below 2 nM. In test [7], this molecule had a mGluR5 (FL) cell binding-fold over background of 39.6 fold.

B4: mGluR5 Ab28 (antibody, V domains shown)
VH: QQQLEESGGGLVKPGGTLTLTCKGSGIDFNDYYYMCWVRQAPGKGLEWIACIYNGDGETYYANWAKGRFTISKTSSTTVTLQMTSLTAADTATYFCARGSGVGSYGYNFWGPGTLVTVSS
VL: DIVMTQTPASVEAAVGGTVTIKCQASESIYSNLAWYQQKPGQPPKLLIYRASNLASGVPSRFKGSGSGTEFTLTISDLECADAATYYCQGYYASTVTNAFGGGTEVVVKR
As for B4, the pERK Assay Inhibition IC50-nM in test [3] was found to be 0.11 nM. The EC50 in test [9] was 0.0918 nM; in test [10], below 2 nM. Also, the mGluR5 (FL) cell binding-fold over background in [7] was determined as 38.9 fold.

B5: mGluR5 Ab22 (antibody, V domains shown)
VH: QSLEESGGDLVKPGASLTLTCTASGFSFSTSYYMCWVRQAPGKGLEWIGCIHTSTFSTWYASWAKGRFTISKTSSTTVTLQMTSLTAADTATYFCARRDAYNYAGYAYNLWGQGTLVTVSS
VL: DVVMTQTPASVSAAVGGTVTINCQASEDIYSNLAWYQQKPGQPPKLLIYGASTLASGVPSRFKGSGSGTEFTLTISDLECADAATYYCQCTFGCFSGSSNNIFGGGTEVVVKR
For the molecule B5, the EC50 is 0.439 nM in test [1] and below 2 nM in [2]. In test [3], this molecule came in with a pERK Assay Inhibition IC50-nM of 8.33 nM. For the same molecule, the mGluR5 (FL) cell binding-fold over background in test [7] amounted to 10.9 fold. In addition, the fold signal over background in [11] fell in the range of 10 to 42 fold.
